Source: patent US20230009539A1 (CLEVELAND CLINIC FOUNDATION, published 2023)

T1: IKKi (endogenous, MEFs) (mouse (MEFs), UniProt Q9R0T8 1-717)
T1 sequence (looked up): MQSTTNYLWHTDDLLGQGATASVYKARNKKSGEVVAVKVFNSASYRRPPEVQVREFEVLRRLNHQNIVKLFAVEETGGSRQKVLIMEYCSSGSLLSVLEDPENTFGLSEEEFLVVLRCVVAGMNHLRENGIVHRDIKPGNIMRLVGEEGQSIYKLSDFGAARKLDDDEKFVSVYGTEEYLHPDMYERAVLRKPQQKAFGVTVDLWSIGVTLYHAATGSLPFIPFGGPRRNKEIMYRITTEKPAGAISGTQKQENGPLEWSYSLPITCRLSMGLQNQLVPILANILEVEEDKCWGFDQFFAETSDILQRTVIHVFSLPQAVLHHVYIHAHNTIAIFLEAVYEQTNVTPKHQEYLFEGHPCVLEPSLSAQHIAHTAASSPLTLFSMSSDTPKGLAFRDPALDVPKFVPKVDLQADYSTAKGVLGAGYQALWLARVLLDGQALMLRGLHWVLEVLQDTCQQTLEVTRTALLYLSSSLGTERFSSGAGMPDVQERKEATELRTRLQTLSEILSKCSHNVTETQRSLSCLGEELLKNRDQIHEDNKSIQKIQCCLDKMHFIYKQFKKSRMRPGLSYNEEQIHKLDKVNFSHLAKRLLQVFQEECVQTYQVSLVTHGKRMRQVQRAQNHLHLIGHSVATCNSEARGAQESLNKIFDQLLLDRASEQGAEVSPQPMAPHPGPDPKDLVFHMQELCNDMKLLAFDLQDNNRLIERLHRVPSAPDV

T2: Dcp1 (endogenous, HeLa cells) (human (HeLa cells), UniProt Q9NPI6 1-582)
T2 construct: its constructs and phospho-antibody are Dcp1a; also called Dcp1 decapping enzyme; Dcp1a
T2 sequence (looked up): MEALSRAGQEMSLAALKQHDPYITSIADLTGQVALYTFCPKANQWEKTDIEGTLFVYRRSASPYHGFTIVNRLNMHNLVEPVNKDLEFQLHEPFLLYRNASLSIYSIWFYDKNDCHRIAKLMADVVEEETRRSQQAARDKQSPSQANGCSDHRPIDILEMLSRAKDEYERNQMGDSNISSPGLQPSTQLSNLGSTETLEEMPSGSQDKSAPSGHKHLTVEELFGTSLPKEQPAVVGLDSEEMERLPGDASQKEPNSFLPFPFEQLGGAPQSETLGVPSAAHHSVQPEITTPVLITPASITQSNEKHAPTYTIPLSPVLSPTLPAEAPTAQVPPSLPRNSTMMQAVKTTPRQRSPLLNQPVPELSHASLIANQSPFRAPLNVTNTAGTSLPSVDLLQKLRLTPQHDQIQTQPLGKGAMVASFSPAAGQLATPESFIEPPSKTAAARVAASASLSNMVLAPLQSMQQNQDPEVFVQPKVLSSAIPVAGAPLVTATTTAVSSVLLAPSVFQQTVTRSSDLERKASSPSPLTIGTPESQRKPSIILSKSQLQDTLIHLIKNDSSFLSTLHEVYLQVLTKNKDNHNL

T3: TBK1 (endogenous, HeLa cells) (human (HeLa cells), UniProt Q9UHD2 1-729)
T3 sequence (looked up): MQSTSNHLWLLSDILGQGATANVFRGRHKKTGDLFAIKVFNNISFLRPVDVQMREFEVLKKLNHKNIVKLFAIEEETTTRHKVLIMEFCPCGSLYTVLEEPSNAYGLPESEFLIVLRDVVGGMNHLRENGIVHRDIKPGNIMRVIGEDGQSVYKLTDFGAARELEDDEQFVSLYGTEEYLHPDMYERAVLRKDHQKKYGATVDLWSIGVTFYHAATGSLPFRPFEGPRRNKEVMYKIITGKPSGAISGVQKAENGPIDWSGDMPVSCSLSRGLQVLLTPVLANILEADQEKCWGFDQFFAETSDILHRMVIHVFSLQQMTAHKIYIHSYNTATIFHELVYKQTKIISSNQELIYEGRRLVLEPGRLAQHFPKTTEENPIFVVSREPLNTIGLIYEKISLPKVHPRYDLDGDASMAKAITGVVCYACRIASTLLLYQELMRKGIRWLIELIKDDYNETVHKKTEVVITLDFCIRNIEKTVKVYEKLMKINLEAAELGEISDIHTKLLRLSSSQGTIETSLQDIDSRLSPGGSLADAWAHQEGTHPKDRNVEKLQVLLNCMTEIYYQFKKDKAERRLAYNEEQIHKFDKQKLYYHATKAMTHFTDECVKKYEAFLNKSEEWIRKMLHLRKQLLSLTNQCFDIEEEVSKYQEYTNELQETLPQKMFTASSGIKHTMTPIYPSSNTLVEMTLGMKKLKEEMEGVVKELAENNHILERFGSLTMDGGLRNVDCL

T4: IKKi (endogenous, HeLa cells) (human (HeLa cells), UniProt Q14164 1-716)
T4 sequence (looked up): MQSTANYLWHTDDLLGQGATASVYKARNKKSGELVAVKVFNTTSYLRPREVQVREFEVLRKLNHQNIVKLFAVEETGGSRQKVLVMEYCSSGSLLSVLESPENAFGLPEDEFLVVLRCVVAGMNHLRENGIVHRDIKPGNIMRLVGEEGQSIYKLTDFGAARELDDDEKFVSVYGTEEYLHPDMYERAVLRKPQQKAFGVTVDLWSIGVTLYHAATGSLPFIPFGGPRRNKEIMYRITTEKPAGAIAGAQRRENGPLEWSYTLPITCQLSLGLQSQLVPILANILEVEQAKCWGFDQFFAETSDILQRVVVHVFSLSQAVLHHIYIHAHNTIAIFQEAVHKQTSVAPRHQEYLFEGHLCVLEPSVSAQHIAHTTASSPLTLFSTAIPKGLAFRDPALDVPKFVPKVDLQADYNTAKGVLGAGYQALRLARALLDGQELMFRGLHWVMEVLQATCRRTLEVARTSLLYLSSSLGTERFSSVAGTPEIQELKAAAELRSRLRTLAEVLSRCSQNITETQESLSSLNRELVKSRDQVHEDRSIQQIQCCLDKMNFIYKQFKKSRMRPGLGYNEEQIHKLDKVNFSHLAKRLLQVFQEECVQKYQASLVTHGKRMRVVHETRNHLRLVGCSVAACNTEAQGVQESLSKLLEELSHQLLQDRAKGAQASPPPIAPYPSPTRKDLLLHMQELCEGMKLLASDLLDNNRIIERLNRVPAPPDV


Tests used:
IKKi (endogenous, MEFs) = molecular target: T1, IKKi (endogenous, MEFs); experiment: anti-FLAG immunoprecipitation from cytoplasmic and nuclear fractions of reconstituted MEFs (FIG. 5G)
Protocol: (§1) Immunoblot, immunoprecipitation and nuclear fractionation: Cell were harvested and lysed on ice in a lysis buffer containing 0.5% Triton X-100, 20 mM Hepes pH 7.4, 150 mM NaCl, 12.5 mM-glycerophosphate, 1.5 mM MgCl2, 10 mM NaF, 2 mM dithiothreitol, 1 mM sodium orthovanadate, 2 mM EGTA, […], and 1 mM phenylmethylsulfonyl fluoride for 20 minutes, followed by centrifuging at 12,000 rpm for 15 minutes to extract clear lysates. For immunoprecipitation, cell lysates were incubated with 1 μg of antibody and A-sepharose beads at 4 degree overnight. After incubation, the beads were washed four times with lysis buffer and the precipitates were eluted with 2× sample buffer. Elutes and whole cell extracts were resolved on SDS-PAGE followed by immunobloting with antibodies. Nuclear fractionation was performed using NUCLEI EZ PREP kit purchased from Sigma in accordance with the manufacturer's instruction. Nuclear pellets were suspended in 30p1 of nuclear extraction buffer (20 mM HEPES, 400 mM NaCl, 1 mM EDTA, 1 mM EGTA in water, pH 7.9) containing freshly prepared 1 mM DTT and protease inhibitor cocktail. After 1.5 h incubation on ice bath with intermittent vortexing, extracts were centrifuged and supernatant was collected for immunoprecipitation.

[1] = molecular target: T2, Dcp1 (endogenous, HeLa cells); experiment: in situ proximity ligation assay with anti-Act1 and anti-Dcp1, endogenous proteins in HeLa cells, untreated or IL-17
[2] = molecular target: T3, TBK1 (endogenous, HeLa cells); experiment: anti-Act1 immunoprecipitation from untreated and IL-17-treated HeLa cells (FIG. 4D)
Protocol: as §1

[3] = molecular target: T4, IKKi (endogenous, HeLa cells); experiment: as above
Protocol: as §1

binding result (IKKi (endogenous, MEFs))	binding result [1]	binding result [2]	binding result [3]	Binder
binds	–	–	–	FLAG-tagged mouse wild-type Act1 (WT) (other, UniProt Q8N7N6 1-555, looked up, also called flag-tagged mAct1; flag-Act1; not shown: FLAG tag) MNRSIPVEVDESEPFPSQLLKPIPEYSPEEELEPPAPNTRNMAPSSLSVLQCPPLKLANHQPVSQQVTCLRAKVLEEGEASFFRRHPELGKDISSCSSGASEPESELGALPPEHRFTLTEKRNRWLGSQLSAASPDTGHESDKSDPSLPNALADSFSGGQEMMPRPRPRPGPHRHRAAPDVPTIDTGYDSQPQDVLGIRQLERPLPLTSSCYLQDLPGPLRSRELPPQFELERYPMNAQLLPPHPSPQAPWNCQYYCPGGPYHHQVPHGHGYPPAAAYQQVLQPALPGQVLPGARARGPRPVQKVILNDSSPQDQEERPAQRDFSFPRLPRDQLYRPPSNGVEAPEESLDLPAELRPHGPQAPSLAAVPRPPSNPLARGTLRTSNLPEELRKVFITYSMDTAMEVVKFVNFLLVNGFQTAIDIFEDRIRGIDIIKWMERYLRDKTVMIIVAISPKYKQDVEGAESQLDEDEHGLHTKYIHRMMQIEFISQGSMNFRFIPVLFPNAKKEHVPTWLQNTHVYSWPKNKKNILLRLLREEEYVAPPRGPLPTLQVVPL
–	binds	binds	binds	Act1 (endogenous, HeLa cells) (other, human (HeLa cells), UniProt O43734 1-574, looked up, Endogenous protein in cells or cell lysate; also called CIKS; endogenous Act1) MPPQLQETRMNRSIPVEVDESEPYPSQLLKPIPEYSPEEESEPPAPNIRNMAPNSLSAPTMLHNSSGDFSQAHSTLKLANHQRPVSRQVTCLRTQVLEDSEDSFCRRHPGLGKAFPSGCSAVSEPASESVVGALPAEHQFSFMEKRNQWLVSQLSAASPDTGHDSDKSDQSLPNASADSLGGSQEMVQRPQPHRNRAGLDLPTIDTGYDSQPQDVLGIRQLERPLPLTSVCYPQDLPRPLRSREFPQFEPQRYPACAQMLPPNLSPHAPWNYHYHCPGSPDHQVPYGHDYPRAAYQQVIQPALPGQPLPGASVRGLHPVQKVILNYPSPWDHEERPAQRDCSFPGLPRHQDQPHHQPPNRAGAPGESLECPAELRPQVPQPPSPAAVPRPPSNPPARGTLKTSNLPEELRKVFITYSMDTAMEVVKFVNFLLVNGFQTAIDIFEDRIRGIDIIKWMERYLRDKTVMIIVAISPKYKQDVEGAESQLDEDEHGLHTKYIHRMMQIEFIKQGSMNFRFIPVLFPNAKKEHVPTWLQNTHVYSWPKNKKNILLRLLREEEYVAPPRGPLPTLQVVPL
